Results: patent US20240376149A1, “Novel Modulators of GABABR1a” (VIB VZW, priority 2021, published 2024)
Where no end group is shown, it is not given here.

Tests used:
[1] = target: T1, Sushi domain 1 of the human GABA B1a receptor (human, UniProt Q9UBS5 26-96); experiment: fluorescence polarization, SD1 titrated against 11.11 µM FITC-9mer; concentration is that of SD1
T1 construct: Purified recombinant protein from E. coli; also called SD1; GABABR1a-SD1

[2] = target: T1, Sushi domain 1 of the human GABA B1a …; experiment: fluorescence polarization, SD1 titrated against 3.7 µM FITC-9mer; concentration is that of SD1
[3] = target: T1, Sushi domain 1 of the human GABA B1a …; experiment: fluorescence polarization, SD1 titrated against 0.14 µM FITC-9mer; concentration is that of SD1
[4] = target: T1, Sushi domain 1 of the human GABA B1a …; experiment: fluorescence polarization, SD1 titrated against 1.2 µM FITC-9mer; concentration is that of SD1
[5] = target: T1, Sushi domain 1 of the human GABA B1a …; experiment: fluorescence polarization, SD1 titrated against 0.05 µM FITC-9mer; concentration is that of SD1
[6] = target: T1, Sushi domain 1 of the human GABA B1a …; experiment: fluorescence polarization, SD1 titrated against 0.41 µM FITC-9mer; concentration is that of SD1
[7] = target: T1, Sushi domain 1 of the human GABA B1a …; experiment: FP competition vs FITC-9mer on purified SD1; 9-mer
Experimental: (§1) To screen for GABABR1a binders using unlabelled test compounds, the assay was turned into a competition assay using FITC-9mer. […] To validate this inhibitor assay, the IC50 values were determined of the 17-mer, 9-mer, 5-mer as well as those from 3 negative controls: 10-mer, scrambled 17-mer and a scrambled 9-mer (FIG. 2).
To determine if the peptides of this application were able to disrupt the SD1-9-mer complex, each peptide (in single point or dose-response curve) tested was incubate with SD1 protein for 1 h at RT. After this initially incubation, FITC-9mer was added to the previous mix and incubated during 2 h at RT. The signal intensity was measure in an appropriate plate reader using the following settings: Number of flashes per well: 200; Excitation: F482-16; Dichroic filter: FLP 504; Emission A F530-40; Gain A: 738, Gain B: 736. The assay was conducted in a 384-well plate.

[8] = target: T1, Sushi domain 1 of the human GABA B1a …; experiment: ITC, peptide titrated into purified SD1
Experimental: First, we wondered whether the wild-type sAPP 9-mer peptide would be the optimal sequence in terms of SD1 binding or whether sequence variants of the sAPP 9-mer would have improved binding to the GABABR1a-SD1. Therefore a panel of single and double sAPP 9-mer mutants was generated. An alanine scan was performed for the residues on position 1 to position 7. Based on an ITC assay, these single mutant peptides bound the SD1 with the same or slightly higher Kd (Table 1). Also the double mutants VIB_P04, VIB_P05 and VIB_P19 bound with a similar Kd to SD1 compared to the wild-type 9-mer. We have also tested the effect of the D-isomer of the amino residues on position 1 to 4, in single or multiple combinations. None of the mutations had strong effects on the measured Kd (Table 1). We therefore conclude that the wild-type sAPP 9-mer is already optimized but that many variants bind as good to SD1 and thus will modulate GABABR1a in a similar manner.
The Sushi-1 protein was dialysed overnight to PBS buffer and diluted to 30 μM in the same buffer. The peptides were resuspended in PBS at a stock concentration of 3 mM and diluted further in the same buffer to 300 μM. ITC experiments were performed on a Microcal ITC200 device. Titrations comprised 26×1.5 μL injections of peptide into protein, with 90 s intervals. An initial injection of ligand (0.5 μL) was made and discarded during data analysis. The data were fitted to a single binding site model using the Microcal LLC ITC₂₀₀. Original software provided by the manufacturer.

[9] = target: GABABR1b expressed on cells (UniProt Q9UBS5-2 30-474, limits assumed); experiment: cell-based binding assay, flow cytometry
[10] = target: T1, Sushi domain 1 of the human GABA B1a …; experiment: FP competition vs FITC-9mer on purified SD1; 17-mer
Experimental: Intrigued by the surprising results of the 5-mer, it was decided to set up a medium- to high-throughput screen to optimize the 5-mer sequence. Several assays were tested to find a reproducible, robust and cost-effective assay that is also suitable for high-throughput screening. A fluorescence polarization (FP) assay was selected. FP measurements are well-known for receptor binding assays. The assay is based on the rotational movement of fluorescently labelled molecules in solution. […] The FP assay was optimized using the FITC labelled sAPP 9-mer (FIG. 1).
as §1

T1 sequence (Q9UBS5 26-96 limits assumed): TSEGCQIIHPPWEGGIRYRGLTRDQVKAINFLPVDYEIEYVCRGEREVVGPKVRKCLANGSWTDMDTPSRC
Chain of GABABR1b expressed on cells (Q9UBS5 other isoform, or with tags, fused parts or gaps limits assumed): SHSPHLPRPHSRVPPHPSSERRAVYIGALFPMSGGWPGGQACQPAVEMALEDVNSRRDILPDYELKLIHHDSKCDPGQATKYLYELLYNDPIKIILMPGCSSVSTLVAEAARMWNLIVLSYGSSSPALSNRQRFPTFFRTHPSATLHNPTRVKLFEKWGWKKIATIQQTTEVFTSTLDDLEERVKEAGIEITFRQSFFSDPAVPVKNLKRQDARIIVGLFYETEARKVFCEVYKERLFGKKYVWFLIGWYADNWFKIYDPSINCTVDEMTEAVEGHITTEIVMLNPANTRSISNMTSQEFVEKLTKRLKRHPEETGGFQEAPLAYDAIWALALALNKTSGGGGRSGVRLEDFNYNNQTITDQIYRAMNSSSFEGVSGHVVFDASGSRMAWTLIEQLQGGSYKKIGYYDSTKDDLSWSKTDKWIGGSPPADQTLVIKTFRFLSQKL

In the case of DDSDVWWGG (also: FITC label, site not given here, also called FITC-9mer) [FITC labelled sAPP 9-mer], the “EC50 (read off the curve)” value [1] is reported as about 8000 nM, the “EC50 (read off the curve)” value [2] is reported as about 4000 nM and the “EC50 (read off the curve)” value [3] is reported as about 1000 nM. For the same binder, the “EC50 (read off the curve)” value [4] was about 2000 nM, the “EC50 (read off the curve)” value [5] was about 800 nM and the “EC50 (read off the curve)” value [6] was about 1000 nM.

Work on DDSDVWWGG (Unlabelled) [wild-type sAPP 9-mer] yielded an IC50 [7] of 11000 nM and a Kd [8] of 3000 nM.

DDSDVWWGG (also: biotin tag, site not given here, also called biotin-9mer; biotion-9mer) [9-mer tagged with Biotin]: no binding [9].

DDSDVWWGGADTDYADG [wild-type sAPP 17-mer] was tested, and the IC50 [10] was 1700 nM.
